Results from the supplement of paper PMC6755084.

B1: minF1; a variant is named by its letters at N, in order (parent)
chain: GAGACCGCAACTGAAAAGTTGTTNNNNAANNNNNGGNTNAATTTCTGCACGTAGAAGCAAAAGGC

Variants of: B1
Assay: fraction ligated after 30 min (ligated reads / total reads); higher = more ligase activity
Conditions: with F1*subA RNA substrate (template-directed ligation), 42 °C
Outline: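 Oligo-pool templates of minimized ligase ribozyme variants were PCR-amplified, T7-transcribed and gel-purified. Ligated and unligated RNAs were gel-separated, reverse transcribed with barcoded primers, and MiSeq-sequenced; core bases were filtered at quality ≥30. Fraction ligated per variant was ligated reads over total reads.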

Variant | fraction ligated
TCAAGGATGTG T23A | 0.00271
ATCGATGGAGT G35T T38G A40T A41G | 0.00105
ATCGATGGAGT A40G | 0.00946
ATCAATGGAGT A28G G35T A40G | 0.0474
ATCGTGGATGT | 0.00561
ATCGATGGATG | 0.00346
TCAGATGGATG | 0.00236
ACAGATATGTG | 0.000749
ATAGATGGAGT A40G | 0.00598
TCAGAGGATGT T23A | 0.00218
ATAGAGGTGTG | 0.00246
ATCATGGATTG A28G | 0.00743
TAGAGGATGTG T23A | 0.00277
ACGATGGTGTG | 0.00555
ACAAGGATGTG | 0.00477
ATAGTGGATGT A40G | 0.0158
ACAATGGATGT A40G | 0.0105
ATAGAGGATGT A40G | 0.00594
ACAATGATGTG | 0.00381
ATCAAATGGGT A28G | 0.00311
ATAATGATGTG | 0.00474

Variant | fraction ligated
TAGATGGTGTG | 0.0039
ATGAGGATGTG A29T | 0.0247
TCAGATGGAGT T23A G35T A40G | 0.0397
AAGATGGTGTG | 0.00306
ATCAAATGGGT A28G G35T | 0.00148
ATCGATGAGTG | 0.00373
CAGATGGATGT A40G | 0.0159
TCGAGGATGTG T23A A29T | 0.013
ATCGTGGATGT A40G | 0.0919
ATCAATGATTG | 0.00237
ATCAAAGGAGT A28G | 0.00277
ATAAGGATGTG | 0.00241
AAGAGGATGTG A29T | 0.00554
ATCGATGGAGT | 0.00434
ATAGATGGTGT A40G | 0.00815
TCAGGGATGTG A29T | 0.00613
AAGATGATGTG | 0.0055
TCAGATGGAGT G35T | 0.0137
ATCGAGGATGT A40G | 0.0171
TCAGAGGATTG | 0.00228
CAGATGGTGTG | 0.00442

Variant | fraction ligated
CAGAGGATGTG | 0.00332
TCAAGGATGTG A29T | 0.00599
ATCAAAGTGTG A28G | 0.00347
CAGATGGATGT | 0.00272
TCGATGGATGT T23A A40G | 0.0572
TCAGATGGAGT A40G | 0.00532
ATAAGGATGTG A29T | 0.0199
TAAAGGATGTG T23A A29T | 0.00526
ATCGATGGAGT G35T A40G | 0.0726
TCAGATGTGTG | 0.00186
ATCAAATGGGT A28G G35A T38G A40T | 0.000933
ATCAAGGATTG A28G | 0.00187
ATCGATGGAGT G35T | 0.0345
ATCGATATGTG | 0.00384
ATCAATGAGTG | 0.003
ACAGATGGAGT A40G | 0.00662
ACAGAGGATTG | 0.0039
ACGATGATGTG | 0.00228
TCAATGGTGTG T23A | 0.00318
TCAGAGGATTG T23A | 0.00302
ATCAAATATGT A28G A40G | 0.00354

Variant | fraction ligated
CGAAGGATGTG A29T | 0.0086
ATCAATGGAGT A28G A40G | 0.00701
ATCAATGTGTG A28G | 0.00293
TCAAGGATGTG | 0.00272
ATAATGGAGTG | 0.00187
ATCATGATGTG A28G | 0.00487
ACAGATGGTGT | 0.002
TGAAGGATGTG A29T | 0.00393
TCAGATGGAGT G35T T38G A40T A41G | 0.000378
ACAGATGGGTG | 0.00695
TCAGTGGATGT A40G | 0.0137
ATCAATGGAGT G35T A40G | 0.0379
ACAATGGATGT | 0.00325
ACAAGGATGTG A29T | 0.00252
TCAGTGGAGTG T23A | 0.00419
ACAGATGATTG | 0.00209
CAGAGGATGTG T23A | 0.00547
TCAGATGGAGT G35T A40G | 0.0226
ATCAATGATGT | 0.00391
ATCAATGTGTG | 0.0057
TCGATGGATTG | 0.127
